# B1: 1 (protein)
# chain: MTSTEKKDMKAVKGLDLERYMGRWYEIASFPSRFQPKDGVDTRATYTLNPDGTVHVLNETWNGGKRGFIQGSAYKADPKSDEAKLKVKFFVPPFLPVIPVTGDYWVLYIDPEYQHAVIGQPSRSYLWILSRTAHMEEETYKQLVEKAVEEGYDVSKLHKTPQSDTPPESNTAPDDTKGVWWLKSIFGK
# modifications: Cluster63 Unique
# B2: SEQ ID NO. 1: Cluster63 Unique, artificial consensus sequence based on a family of homologous plant lipocalin sequences (protein)
# chain: B1 chain
# modifications: Cluster63 Unique
# B3: 33 (protein, listed as Macleaya cordata)
# chain: MIRYSGRWFEVASLKRGFAGSGQEDCHCTQGVYTFDSEAPAIQVDTFCVHGGPDGYITGIRGKVQCLSEEDLEKNETDLEKRVMIREKCYLRFPTLPFIPKEPYDVIATDYDNFALVSGAKDTSFIQIYSRTPNPGPEFIEKYKSYLGNYGYDPSMIKDTPQ
# B4: SEQ ID NO. 33: OVA10565.1 Lipocalin/cytosolic fatty-acid binding domain (partial), Macleaya cordata (protein, listed as Macleaya cordata)
# chain: B3 chain
# B5: 10 (protein)
# chain: MHVSTRQPCGAAPTAWPAQRPRSSPRRLACSAVLRDDARGVLQQAGLKLAAAAAAVLLAAPLHAGAASMPANAPLPALPPAPFDIEQSKQSKLLFDPMAYSGRWYEVASLKRGFAGEGQQDCHCTQGIYTPKEGGPEGAIKLEVDTFCVHGGPGGRLSGIQGSVSCADPLLLSYLPEFQTEMEMVEGFVAKCALRFDSLAFLPPEPYVVLRTDYTSYALVRGAKDRSFVQIYSRTPNPGAKFIAEQKAVLGQLGYPANDIVDTPQDCPEMAPQAMMAAMNRGMSSTPTMPASTPPALAMAGYDLGPAAVVLGEEAPAPVKGIAFDRLRNPLESLKNVFSLFN
# modifications: Micractinium conductrix
# B6: SEQ ID NO. 10: PSC68250.1 lipocalin-like domain, Micractinium conductrix (green algae) (protein)
# chain: B5 chain
# modifications: Micractinium conductrix
# B7: SEQ ID NO. 121: odorant-binding protein 1a-like, Mus caroli (Ryukyu mouse) (protein, listed as Mus caroli)
# chain: MVKFLLLELAFGLAHAQMYGPWKTIAIAADNVDKMEISGELRLYFHQITCEKECKKMNVTFYVDENGQCSLTTITGYLQDDGKTYRSQFQGDNHYATVRTTPENIVFYSENVDRAGRKTKLVYVVGKNGSGSLK
# B8: SEQ ID NO. 148: Odorant-binding protein, partial, Heterocephalus glaber (naked mole-rat) (protein)
# chain: MINGDWCSIYIAADNVEKIEERGELRAYFCHIECQDECRNLSGGDRIMRNKHCCVGLSFRLDGVCQEFTVVGVKDEKSGVYITDYVGKNYFTVVESTEYITLFSNIIVDEKGTKMNVVLVAAKRDSLTEKEKQKFAQLAEEKGIPTENIRNVIAT
# modifications: Heterocephalus glaber
# B9: 30 (protein)
# chain: MAYSGRWYEVASLKRGFAGEGQQDCHCTQGIYTPKEGGPEGAIKLEVDTFCVHGGPGGRLSGIQGSVSCADPLLLSYLPEFQTEMEMVEGFVAKCALRFDSLAFLPPEPYVVLRTDYTSYALVRGAKDRSFVQIYSRTPNPGAKFIAEQKAVLGQLGYPANDIVDTPQDCPEMAPQ
# modifications: Micractinium conductrix
# B10: SEQ ID NO. 30: PSC68250.1 lipocalin-like domain (partial), Micractinium conductrix (protein)
# chain: B9 chain
# modifications: Micractinium conductrix
# notes: PSC68250.1 lipocalin-like domain (partial), Micractinium conductrix
# How the values were obtained:
# [1] = Ligand binding assay by ANS displacement, CBD; settings: 2 μM protein, 20 μM ANS, 33 μM ligand, 20° C.; for binding to CBD by ANS displacement (relative change in fluorescence): FIG. 8; for Purification Status (binding to CBD): Table 3
# [2] = Ligand binding assay by ANS displacement, THC; settings: 2 μM protein, 20 μM ANS, 33 μM ligand, 20° C.; for binding to THC by ANS displacement (relative change in fluorescence): FIG. 8; for Purification Status (binding to THC): Table 3
Molecule,binding to CBD by ANS displacement (relative change in fluorescence) [1],binding to THC by ANS displacement (relative change in fluorescence) [2],Purification Status (binding to CBD) [1],Purification Status (binding to THC) [2],binding to CBD by ANS displacement (relative change in fluorescence) ([1]; listed as OBP2),binding to THC by ANS displacement (relative change in fluorescence) ([2]; listed as OBP2)
B1,bind to both THC and CBD,bind to both THC and CBD,,,,
B2,,,Binds to CBD,Binds to CBD,,
B3,bind to both THC and CBD,bind to both THC and CBD,,,,
B4,,,Binds to CBD,Binds to CBD,,
B5,bind to both THC and CBD,bind to both THC and CBD,,,,
B6,,,Binds to CBD,Binds to CBD,,
B7,,,Binds to THC,Binds to THC,highest binding affinity,highest binding affinity
B8,,,Binds to THC,Binds to THC,,
B9,bind to both THC and CBD,bind to both THC and CBD,,,,
B10,,binds to THC better than full length,Binds to CBD,Binds to CBD,,

# Source: patent US20220151977A1, “Generation Of Water-Soluble Cannabinoids Utilizing Protein Cannabinoid-Carriers” (Trait Biosciences, Inc., priority 2019, published 2022)
